Results as given in publication PMC3715405.

Biological target: T1, WT tetherin (human tetherin internally tagged with an HA epitope at amino acid 155) (human), Q10589
T1 chain: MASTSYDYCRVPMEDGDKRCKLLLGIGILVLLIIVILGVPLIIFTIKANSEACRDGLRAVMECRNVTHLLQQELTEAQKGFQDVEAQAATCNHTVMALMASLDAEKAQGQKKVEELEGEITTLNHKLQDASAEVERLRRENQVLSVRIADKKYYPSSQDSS
Experiment: non-reducing SDS-PAGE and western blot; lysates of 293T cells cotransfected with HIV-1 ΔVpu proviral plasmid and tetherin plasmids, lysed in non-reducing buffer, probed with anti-HA; shows disulphide-linked dimers
Details: remark: other sources report otherwise

stoichiometry N: 2
B1: WT tetherin (human tetherin internally tagged with an HA epitope at amino acid 155), Q10589 1-161 (natural protein)
chain: T1 chain
modifications: here or on the partner: glycosylphosphatidylinositol (GPI) membrane anchor at the C-terminus; heterogeneously glycosylated; glycosylphosphatidylinositol (GPI) membrane anchor at the C-terminus; heterogeneously glycosylated
